Substitutions are numbered along the chain they refer to. Read-outs that look alike come from different tables or passages of the source.
B1: COVID19_P06_G10 (scFv, V domains shown)
VH: QVQLVQSGAEVKKPGASVKVSCKASGYDFINYYIHWVRQAPGQGLEWMGIIDPSGGSTSYAQKFQGRVTMTRDTSTSTVYMELSSLRSEDTAVYYCTREGIPQLLRTLDYWGQGTLVTVSS
VL: DIQMTQSPSSLSASVGDRVTITCRASQDISDSLAWYQQKPGKAPKLLIYAASSLQSGVPSRFSGSGSGTDFTLTISSLQPEDFATYYCQQSYSRLAWTFGGGTKVEIKR
B2: COVID19_R02_B08 (scFv, V domains shown)
VH: B1 VH with D28T, I30T, N31S, D52N, S54R, G100A, I101K
VL: DIQMTQSPSSLSASVGDRVTITCRASQGIDTYLNWYQQKPGKAPKLLIYKASSLESGVPSRFSGSGSGTEFTLTINSLQPEDIATYYCQQYDNLPLTFGGGTKVEIKR
B3: COVID19_R02_F04 (scFv, V domains shown)
VH: B1 VH with D28R, I30T, N31S, Y33E, I34V, H35N, D52N, R106W, T107A
VL: not shown
B4: COVID19_P06_F05 (scFv, V domains shown)
VH: QVQLVQSGAEVKKPGASVKVSCKASGYTFASYDVNWVRQAPGQGLEWMGIINPRSGDANYAQKFQGRVTMTRDTSTSTVYMELSSLRSEDTAVYYCTRERHPQLLMPLDYWGQGTLVTVSS
VL: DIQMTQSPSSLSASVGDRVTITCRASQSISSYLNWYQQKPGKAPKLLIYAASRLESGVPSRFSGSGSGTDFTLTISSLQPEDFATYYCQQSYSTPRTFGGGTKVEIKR
B5: COVID19_R02_F08 (scFv, V domains shown)
VH: QVQLVQSGAEVKKPGASVKVSCKASGYTFGNYAINWVRQAPGQGLEWMGAIYPGNSDTTYNQKFQGRVTMTRDTSTSTVYMELSSLRSEDTAVYYCARDTVMGGMDVWGQGTLVTVSS
VL: DIQMTQSPSSLSASVGDRVTITCRASQEISGYLSWYQQKPGKAPKLLIYAASSLQSGVPSRFSGSGSGTDFTLTISSLQPEDFATYYCQQYVSYPWTFGGGTKVEIKR
B6: COVID19_R02_D11 (scFv, V domains shown)
VH: B1 VH with D28T, I30T, N31E, Y32N, Y33E, I34M, D52N, G55A
VL: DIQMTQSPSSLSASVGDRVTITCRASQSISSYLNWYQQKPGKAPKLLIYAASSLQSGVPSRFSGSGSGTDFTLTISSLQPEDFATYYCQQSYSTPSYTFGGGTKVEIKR
B7: COVID19_P06_C02 (scFv, V domains shown)
VH: B1 VH with D28T, I30T, N31E, Y32N, Y33E, I34M, D52N, Q103W, L104W
VL: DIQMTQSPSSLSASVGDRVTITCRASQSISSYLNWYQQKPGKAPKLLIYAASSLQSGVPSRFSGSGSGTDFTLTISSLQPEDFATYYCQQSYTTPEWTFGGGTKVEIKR
notes: also called COVID19_P06_CO2
B8: COVID19_R02_A04 (scFv, V domains shown)
VH: B1 VH with D28T, I30T, N31E, Y32N, Y33E, I34M, D52N, S54D
VL: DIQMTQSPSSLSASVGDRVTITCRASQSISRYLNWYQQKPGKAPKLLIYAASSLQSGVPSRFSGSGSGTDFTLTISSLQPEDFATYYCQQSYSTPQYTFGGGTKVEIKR
B9: COVID19_R02_C11 (scFv, V domains shown)
VH: B1 VH with D28T, I30S, N31D, I34M, T58A
VL: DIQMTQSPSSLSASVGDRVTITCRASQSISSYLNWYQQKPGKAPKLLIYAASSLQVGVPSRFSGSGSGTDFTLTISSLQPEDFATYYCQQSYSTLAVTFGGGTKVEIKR
B10: COVID19_R02_D07 (scFv, V domains shown)
VH: B1 VH with D28T, I30T, N31E, Y32N, Y33E, I34M, D52N, I101P
VL: DIQMTQSPSSLSASVGDRVTITCRASQSISSYLNWYQQKPGKAPKLLIYHTSNLETGVPSRFSGSGSGTDFTLTISSLQPEDFATYYCQQSYSFPATTFGGGTKVEIKR
B11: COVID19_R02_E11 (scFv, V domains shown)
VH: B1 VH with D28T, I30T, N31E, Y32N, Y33E, I34M, D52N
VL: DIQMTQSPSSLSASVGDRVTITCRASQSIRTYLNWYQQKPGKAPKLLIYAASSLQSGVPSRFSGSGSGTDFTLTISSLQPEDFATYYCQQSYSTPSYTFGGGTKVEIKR
notes: also called COVID19_C R02_E11
B12: COVID19_P06_G11 (scFv, V domains shown)
VH: QVQLVQSGAEVKKPGASVKVSCKASGNTFTGYYMHWVRQAPGQGLEWMGAIYPGGSDTSYNQKFQGRVTMTRDTSTSTVYMELSSLRSEDTAVYYCTREGIPQLAWTLDYWGQGTLVTVSS
VL: DIQMTQSPSSLSASVGDRVTITCRASQSMSSYLNWYQQKPGKAPKLLIYAASSLQSGVPSRFSGSGSGTEFTLTISSLQPEDIATYYCQQFGSFGGGTKVEIKR
B13: COVID19_R02_A12 (scFv, V domains shown)
VH: B1 VH with D28T, I30T, N31E, Y32N, Y33E, I34M, D52N, P53T, S57Y, S59N
VL: B5 VL with E28S, G31S, Y32W, S34A, Y91S, V92Y, Y94N, W96Y
B14: COVID19_P06_G03 (scFv, V domains shown)
VH: QVQLVQSGAEVKKPGASVKVSCKASGYTFTENEMHWVRQAPGQGLEWMGVVNPSGGYTSYAQKFQGRVTMTRDTSTSTVYMELSSLRSEDTAVYYCTREGIPQLLRSQDYWGQGTLVTVSS
VL: not shown
B15: COVID19_R02_A05 (scFv, V domains shown)
VH: B14 VH with V50M, V51I, S59N, K63E, S107T, Q108L
VL: DIQMTQSPSSLSASVGDRVTITCRASQSIYRWLAWYQQKPGKAPKLLIYAASSLQSGVPSRFSGSGSGTEFTLTISSLQPEDFATYYCQQSYGNPYTFGGGTKVEIKR
B16: COVID19_R02_B06 (scFv, V domains shown)
VH: B14 VH with V51I, S107H, Q108L
VL: B5 VL with E28S, G68W, Y91S, V92Y, Y94T, W96L
B17: COVID19_R02_D03 (scFv, V domains shown)
VH: B14 VH with N32Y, V50I, V51I, S59N, L104V, S107T, Q108L
VL: B15 VL with Y30S, R31S, E70D, G93S
B18: COVID19_R02_F06 (scFv, V domains shown)
VH: B14 VH with V50I, V51I, S54N, Y57G, S59Y, S107T, Q108L
VL: B5 VL with E28G, S30R, G31N, Y32D, S34G, Y91T, V92Y, Y94A, W96Y
B19: COVID19_R02_F07 (scFv, V domains shown)
VH: B14 VH with V50I, V51I, P53T, S59N, S107T, Q108L
VL: B15 VL with Y30S, R31S, E70D, G93S, Y96L, T97H
B20: COVID19_P06_G02 (scFv, V domains shown)
VH: QVQLVQSGAEVKKPGASVKVSCKASGYTFTSHDINWVRQAPGQGLEWMGMINPSGGYTSYAQNFQGRVTMTRDTSTSTVYMELSSLRSEDTAVYYCTREGIPALLRTLDYWGQGTLVTVSS
VL: B15 VL with S28G, Y30R, R31N, W32D, A34G, E70D, S91T, G93T, N94T
B21: COVID19_R02_C12 (scFv, V domains shown)
VH: QVQLVQSGAEVKKPGASVKVSCKASGYTFTSYDINWVRQAPGQGLEWMGMVDPNSGNTYYAQKFQGRFTMTRDTSTSTVYMELSSLRSEDTAVYYCTREGIPQLLGTLDYWGQGTLVTVSS
VL: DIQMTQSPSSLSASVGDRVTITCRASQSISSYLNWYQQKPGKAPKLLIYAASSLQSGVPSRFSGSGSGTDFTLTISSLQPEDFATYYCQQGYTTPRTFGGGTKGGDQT
B22: COVID19_P06_C09 (scFv, V domains shown)
VH: B20 VH with H32Y, D33E, M50V, Y57H, S59N, N63K, A103Q, L105A, R106G
VL: B5 VL with E28S, S34N, Q55E, Y91G, V92Y, S93T, Y94T, W96R
B23: COVID19_P06_F03 (scFv, V domains shown)
VH: B12 VH with N27Y, G31S, Y33S, G55N, S59T, N61A, R98L, E99D, A105L, W106R
VL: B5 VL with E28S, G31S, S34N, A50G, A51V, Q55H, Q89L

Experiments:
Experiment in all cases: SPR, scFv captured by anti-V5, RBD analyte
[1] = biological target: T1, SARS-CoV-2 Receptor Binding Domain (RBD) protein (SARS-CoV-2, UniProt P0DTC2 319-541)
[2] = biological target: SARS-CoV-1 Receptor Binding Domain (RBD) protein (SARS-CoV-1, UniProt P59594 306-527)
[3] = biological target: MERS Receptor Binding Domain (RBD) protein (Middle East Respiratory Syndrome (MERS) …, UniProt K9N5Q8 367-606)
[4] = biological target: T1, SARS-CoV-2 Receptor Binding Domain …; remark: listed apart in the source

Binder | Kd [1] | koff [1] | kon [1] | binding result [2] | binding result [3] | Kd [4]
B1 | 2.06 nM | 0.00068 s⁻¹ | 330000 M⁻¹ s⁻¹ | no binding (tested: 300 nM) | no binding (tested: 300 nM) | 
B2 |  |  |  |  |  | 166 nM
B3 | 6.4 nM | 0.00036 s⁻¹ | 56000 M⁻¹ s⁻¹ |  |  | 
B4 | 0.9 nM | 5.7e-05 s⁻¹ | 61900 M⁻¹ s⁻¹ | no binding (tested: 300 nM) | no binding (tested: 300 nM) | 
B5 | 9.1 nM | 0.00071 s⁻¹ | 78000 M⁻¹ s⁻¹ | no binding (tested: 300 nM) | no binding (tested: 300 nM) | 
B6 | 4.9 nM | 0.00069 s⁻¹ | 140000 M⁻¹ s⁻¹ | no binding (tested: 300 nM) | no binding (tested: 300 nM) | 
B7 | 6.15 nM | 0.000438 s⁻¹ | 71200 M⁻¹ s⁻¹ | no binding (tested: 300 nM) | no binding (tested: 300 nM) | 
B8 | 12.7 nM | 0.00069 s⁻¹ | 54400 M⁻¹ s⁻¹ | no binding (tested: 300 nM) | no binding (tested: 300 nM) | 
B9 | 12.8 nM | 0.0011 s⁻¹ | 86000 M⁻¹ s⁻¹ | no binding (tested: 300 nM) | no binding (tested: 300 nM) | 
B10 | 6.3 nM | 0.00043 s⁻¹ | 68000 M⁻¹ s⁻¹ | no binding (tested: 300 nM) | no binding (tested: 300 nM) | 
B11 | 7.9 nM | 0.00079 s⁻¹ | 100000 M⁻¹ s⁻¹ | no binding (tested: 300 nM) | no binding (tested: 300 nM) | 
B12 | 21.5 nM | 0.0014 s⁻¹ | 65000 M⁻¹ s⁻¹ | no binding (tested: 300 nM) | no binding (tested: 300 nM) | 
B13 | 46.3 nM | 0.0102 s⁻¹ | 219000 M⁻¹ s⁻¹ | no binding (tested: 300 nM) | no binding (tested: 300 nM) | 
B14 |  |  |  | no binding (tested: 300 nM) | no binding (tested: 300 nM) | 
B15 |  |  |  | no binding (tested: 300 nM) | no binding (tested: 300 nM) | 
B16 |  |  |  | no binding (tested: 300 nM) | no binding (tested: 300 nM) | 
B17 |  |  |  | no binding (tested: 300 nM) | no binding (tested: 300 nM) | 
B18 |  |  |  | no binding (tested: 300 nM) | no binding (tested: 300 nM) | 
B19 |  |  |  | no binding (tested: 300 nM) | no binding (tested: 300 nM) | 
B20 | 6.92 nM | 0.0009 s⁻¹ | 130000 M⁻¹ s⁻¹ | no binding (tested: 300 nM) | no binding (tested: 300 nM) | 
B21 | 8.2 nM | 0.00059 s⁻¹ | 72000 M⁻¹ s⁻¹ | no binding (tested: 300 nM) | no binding (tested: 300 nM) | 
B22 | 2.47 nM | 0.00074 s⁻¹ | 300000 M⁻¹ s⁻¹ | no binding (tested: 300 nM) | no binding (tested: 300 nM) | 
B23 | 32.6 nM | 0.00532 s⁻¹ | 163000 M⁻¹ s⁻¹ | no binding (tested: 300 nM) | no binding (tested: 300 nM) | 
